Test [1] concerns the target fusion protein containing the A3B3 domain of CEA (UniProt P06731). Description: competitive ELISA against HRP-conjugated hMN-14 IgG (1 nM) on A3B3 fusion protein.
In another test the target is CEA (UniProt P06731). Description: SE-HPLC of 125I-TF2 mixed with a 20-fold molar excess of CEA.

Substance TF2 (bispecific antibody) returned a fold avidity relative to TF1 in test [1] of 2 fold. In addition, in the test with CEA, the percent shifted to a high molecular weight species amounted to 95%.

Source of the values: patent publication EP1874358B1.
